Laboratory results reported in the DeepSol protein solubility set.

Assay: soluble on expression in E. coli; label from the status in PepcDB or PDB records

Sequence | soluble on expression in E. coli
DVSQKIKDIDDQIQQLLLKQRHLLSKMASSMKSLKNCQKELISTQILQFEAQNMDVSMNDVIGFFNEREADLK | soluble
DYKDDDDKLAAAQYPVVNTNYGKIRGLRTPLPNEILGPVEQYLGVPYASPPTGERRFQPPEPPSSWTGIRNTTQFAAVCPQHLDERSLLHDMLPIWFTANLDTLMTYVQDQNEDCLYLNIYVPTEDDIHDQNSKKPVMVYIHGGSYMEGTGNMIDGSILASYGNVIVITINYRLGILGFLSTGDQAAKGNYGLLDQIQALRWIEENVGAFGGDPKRVTIFGSGAGASCVSLLTLSHYSEGLFQKAIIQSGTALSSWAVNYQPAKYTRILADKVGCNMLDTTDMVECLRNKNYKELIQQTITPATYHIAFGPVIDGDVIPDDPQILMEQGEFLNYDIMLGVNQGEGLKFVDGIVDNEDGVTPNDFDFSVSNFVDNLYGYPEGKDTLRETIKFMYTDWADKENPETRRKTLVALFTDHQWVAPAVATADLHAQYGSPTYFYAFYHHCQSEMKPSWADSAHGDEVPYVFGIPMIGPTELFSCNFSKNDVMLSAVVMTYWTNFAKTGDPNQPVPQDTKFIHTKPNRFEEVAWSRYNPKDQLYLHIGLKPRVRDHYRATKVAFWLELVPHLHNLNEIFQYVSTTTKVPPPDMT | soluble
DYKLFITEGYEVGRVNGLAVIGESAGIVLPIIAEVTPSMSKSEGRVIATGRLQEIAREAVMNVSAIIKKYTGRDISNMDVHIQFVGTYEGVAGDSASISIATAVISAIEGIPVDQSVAMTGSLSVKGEVLPVGGVTQKIEAAIQAGLKKVIIPKDNIDDVLLDAEHEGKIEVIPVSRINEVLEHVLEDGKKKNRLMSKFKELELAAV | soluble
EAGAPCGRISFALRYLYGSDQLVVRILQALDLPAKDSNGFSDPYVKIYLLPDRKKKFQTKVHRKTLNPIFNETFQFSVPLAELAQRKLHFSVYDFDRFSRHDLIGQVVLDNLLELAEQPPDRPLWRDILEGGSEKADLGELNFSLCYLPTAGLLTVTIIKASNLKAMDLTGFSDPYVKASLISEGRRLKKRKTSIKKNTLNPTYNEALVFDVAPESVENVGLSIAVVDYDCIGHNEVIGVCRVGPEAADPHGREHWAEMLANPRKPVEHWHQLVEEKTLSSFTKGGKGLSEKENSE | soluble
EAPFTLKVNTLPLNFDKAEHHRKFQIHINVSYIGERPNSNMVIVDVKMVSGFIPVKPSVKKLQDQSNIQRTEVNTNHVLIYIEKLTNQTMGFSFAVEQDIPVKNLKPAPVKVYDYYETDEFAIEEYSAPFSSDS | soluble
EDAWEANDPLGSLSIRYLEAAQDSQWHRELLLAGTDINHHVFRDLVTPRNPRSRFSFAMYLKEQGRMFDFGLLGRPASRHEWSDYLAWVSRQVDSQTCFNTPVTGIDPVLRNGRLHEVRVCTPQTCFTTRNVVLSSGSAPRIPHAFEALLGPTLFHTSQFLTRLQAFGEYLPKRWLVLGSGQSASESVLELVSRDHAIEV | not soluble
EEKVVAEQQADGTWLMDGWISIRKASNLLEHDLVDEAERYSTLGGYLLWQFGYIPAAGEQITVDGLIFEIVSVNKHNIGKVRVHRTQ | soluble
EEPEHSYDNSWGMGYGSSNSRSYGSQNSRSYGSPRTPKLPKHSNKPAIALNVGDRVNHEKYGLGTVTKVDKMAPADSVTIDFGSSGTVRLMLIGSVPMEKL | not soluble
EEYSKAELVVREYVASEGREFFISFEIPEYDALVGFVRLRFPKEPFIEVLRDAALIRELHVYGRAVPIGQSSDAFQHRGFGERLLKEAEEIAKEEYDRIAVISGVGVRDYYRKLGYRLRQGYMVKKL | not soluble
EFGEPAPANAESSSVAALKIGKVGNFGDCTGTLVADQWVLTARHCLESVNNEGTQARIGGKVYDADSWALSPVSDAGLLHLTEKVTDATPAKVSRDIPTPGQTGTLYGWSSSSSLARSGQLPMAKMVVKELLGGGPSQGTPSEGAPGGATPGEVAPGGAAPSETVPSESQAESIPAGTESIPADGAMMPMIQSAILDAHSVSGAGMQGGDSGGPFFVDGKLAGLATAGTANGDPDLPSPSAAITTLAGTADWIDGVTSGRDTKSVLTAENTPAPPKTIQTSADH | not soluble
EFILVQADTPSSPSIDQVEPYSSTAQVQFDEPEATGGVPILKYKAEWRAVGEEVWHSKWYDAKEASMEGIVTIVGLKPETTYAVRLAALNGKGLGEISAASEFKTQPVREPSAPKLEGQMGEDGNSIKVNLIKQDDGGSPIRHYLVRYRALSSEWKPEIRLPSGSDHVMLKSLDWNAEYEVYVVAENQQGKSKAAHFVFRTSAQPTAIPANGSPTSGL | soluble
EGSARFMPELTARAGFAFIPSIAIIKNKVFEPDDPQELEAYQSVLGYTPGIRGNLKVSSFSGHMLADYHPFKNAFRVTAGLYFNRPQINAKVQLINQNTGQSIMNDQSTLNPNNMPVITIKDKDNPADKVSIQPSSTAEVEASVHLGRTVQPYIGIGYGFAVPVSRVSFFADLGMLFSGKAQISSPNVIAGDPNLLIDFSEDAQEAVYSTQILPVLNIGVSIRLF | not soluble
EHEHNYHPNAVAAGLRAGRTRSIGLVIPDLENTSYTRIANYLERQARQRGYQLLIACSEDQPDNEMRCIEHLLQRQVDAIIVSTSLPPEHPFYQRWANDPFPIVALDRALDREHFTSVVGADQDDAEMLAEELRKFPAETVLYLGALPELSVSFLREQGFRTAWKDDPREVHFLYANSYEREAAAQLFEKWLETHPMPQALFTTSFALLQGVMDVTLRRDGKLPSDLAIATFGDNELLDFLQCPVLAVAQRHRDVAERVLEIVLASLDEPRKPKPGLTRIKRNLYRRGVLSRS | soluble
EHGWCGHLCPLGAAYGVIGRKSLLRVTAVRREDCTKCMDCFYVCPEPEVLRQPLKEGDRRVMVQNCISCGRCLDVCPEQVFEFKNRLNVKNID | not soluble
EITPLIFQKQTTEPVENLRTYTALEMEGRDIYIREGCNVCHSQMIRPFRAETERYGHYSVAGESVWEHPFLWGSKRTGPDLARVGQRYSDEWHRVHLINPRDVVPESNMPGFPWLEENVLDGELTSKKIAIFRDNFGVPYTEEDVKNASEEVKGKTEMDALIAYLQSLGH | not soluble
EKATENSPLVMIEYSSPNTNKPLHLGHVRNNLLGNALANVMAANGNKVVKTNIVNDRGIHICKSMLAWLKYGNGETPESSGKKGDHLIGDYYVAFDKHYKAEVKELTAQYQAEGLNEEEAKAKAEANSPLMLEAREMLRKWEANDPEIRALWKKMNDWVYAGFDETYKMMGVSFDKIYYESNTYLEGKEKVMEGLEKGFFYRKEDNSVWADLTAEGLDHKLLLRGDGTSVYMTQDIGTAKLRFQDYPINKMIYVVGNEQNYHFQVLSILLDKLGFEWGKGLVHFSYGMVELPEGKMKSREGTVVDADDLMEAMIETAKETSAELGKLDGLTQEEADNIARIVGLGALKYFILKVDARKNMTFNPKESIDFN | not soluble
EKKYIVGFKQTMSAMSSAKKKDVISQKGGKVEKQFKYVNAAAATLDEKAVKELKKDPSVAYVEEDHIAHEY | soluble
ELVMTQSPLSLPVSLGDQASISCRPSQSLVHSNGNTYLHWYLQKPGQSPKLLIYRVSNRFSGVPDRFSGSGSGTAFTLKISRVEAEDLGVYFCSQGTHVPYTFGGGTKLELKRADAAPTVSIFPPSSEQLTSGGASVVCFLNNFYPKDINVKWKIDGSERQNGVLNSWTDQDSKDSTYSMSSTLTLTKDEYERHNSYTCEATHKTSTSPIVKSFNRNEC | soluble
ELVVTQESALTTSPGETVTLTCRSSSGAVTTSNYATWVQEKPDHLFTGLIGGTNKRAPGVPARFSGSLIGDRAALTITGAQTEDEAIYFCALWNSNHLVFGGGTKLEIKRTVAAPSVFIFPPSDEQLKSGTASVVCLLNNFYPREAKVQWKVDNALQSGNSQESVTEQDSKDSTYSLSSTLTLSKADYEKHKVYACEVTHQGLSSPVTKSFNRGEC | soluble
EQAEAQLAELDLLASMFPGENELIVNDQLAVAELKDCIEKKTMEGRSSKVYFTINMNLDVSDEKMAMFSLACILPFKYPAVLPEITVRSVLLSRSQQTQLNTDLTAFLQKHCHGDVCILNATEWVREHASGYVSRDTSS | soluble
EQIDRWNQVSEYIERLNVLEDNGSNTLIIASGIAYPYVKEITEEEGLNANIFRLVTPVPIPEKSILDSMTRVKKVLVVEENDPVVELQLSQLMVKNGIMKELHGKDLVSPIGELTLEKVRGAIMGFFGKEYVRSYPDDVSLRTRPPALCPGCPHRSSFYDIKKGLSKVSMQKAFFSGDIGCYTLGALPPFNEQDSATNMGSSVGISNGVFRATGQIPVSIIGDSTFFHSGLQGVANAVYNGTPEIIIVLDNRSTAMTGQQPSPSTHISIENVARAMGIDFVDTFDPFDVKEGSDAVQKAAEYVKENKKPALIVAKRACALEVLEKVGDYTMKAEVDLEKCTGCSICYDFFTCPSILPLSNKKAFIDDSCIGCGACVEVCPFNAIK | not soluble
EQQADGTWLMDGWISIRKASNLLEHDLVDEAERYSTLGGYLLWQFGYIPAAGEQITVDGLIFEIVSVNKHNIGKVRVHRTQPENE | not soluble
ERVPEGSIRVAIASNNGEQLDGHFGSCLRFLVYQVSAKDASLVDIRSTLDVALAEDKNAWRVEQIQDCQVLYVVSIGGPAAAKVVRAGIHPLKKPKGCAAQEAIAELQTVMAGSPPPWLAKLVGVSAEERVRFSVSDDEDEAARA | soluble
EVIDLASPIEAHGETLSQVTFRRPTAQEARAIKALPYKIDKNEDVSLDLDVAAKYIAVCAGIPPSSVNQMDLCDINTLSWKVASFFMAAAS | not soluble
EVQLLEQSGAEVKKPGSSVQVSCKASGGTFSMYGFNWVRQAPGHGLEWMGGIIPIFGTSNYAQKFRGRVTFTADQATSTAYMELTNLRSDDTAVYYCARDFGPDWEDGDSYDGSGRGFFDFWGQGTLVTVSSASTKGPSVFPLAPSSKSTSGGTAALGCLVKDYFPEPVTVSWNSGALTSGVHTFPAVLQSSGLYSLSSVVTVPSSSLGTQTYICNVNHKPSNTKVDKKVEPKSCDKTS | soluble
EVQLVESGGGLVQPGGSLRLSCAASGFTISSSSIHWVRQAPGKGLEWVAWVLPSVGFTDYADSVKGRFTISADTSKNTAYLQMNSLRAEDTAVYYCARRVCYNRLGVCAGGMDYWGQGTLVTVSSASTKGPSVFPLAPSSKSTSGGTAALGCLVKDYFPEPVTVSWNSGALTSGVHTFPAVLQSSGLYSLSSVVTVPSSSLGTQTYICNVNHKPSNTKVDKKVEPKSCDKTH | soluble
EYYDVRGWDPHDRQVYTPIHEACYDRGGIFFAFFDDEQMIAAAALDTLPRGMNGELRQLLFFYVGAGKRGQGWGRRLFQYALHQLPEMGASGLYISSIPNKNTVDFYLAQG | not soluble
FADRMVIKAQSPAGFAEEYIIESIWNNRFPPGTILPAERELSELIGVTRTTLREVLQRLARDGWLTIQHGKPTKVNNFWETSGLNILETLARLDHESVPQLIDNLLSVRTNISTIFIRTAFRQHPDKAQEVLATANEVADHADAFAELDYNIFRGLAFASGNPIYGLILNGMKGLYTRIGRHYFANPEARSLALGFYHKLSALCSEGAHDQVYETVRRYGHESGEIWHRMQKNLPGDLAIQGR | soluble
FGNFNFNTNFVFGYAKNRVDYKAEAQQKYEWLRETGRQIGQPFGYHWIGYYTPEDIEKINSGAADAPAKPDIAVQAGDLKYADLNGDGTINDFDKRAIGKPNLPTTTLGWTIGGSWKGFSISVLFQGSFDYSFAINGTGIESGKSQFQPLHQKRWTQERYENGESIEFPRLTMQDGTINSASAYNSDFWLINAWYIRLKTVDLGYQLPKTALPKFLDNVRFYVNAYNLLTFTGYDKYQQDPEIKTNTAGDAYMNQRVINFGVQLGF | not soluble
